Settings: Bacillus subtilis (strain 168); pH 7; Thermal; CD; Potassium phosphate 10 mM; reversible: yes; whole UniProt chain shown

B1: Phosphocarrier protein HPr wild type, P08877 (protein)
chain: MAQKTFKVTADSGIHARPATVLVQTASKYDADVNLEYNGKTVNLKSIMGVMSLGIAKGAEITISASGADENDALNALEETMKSEGLGE
Tm: 72.6 °C
unfolding enthalpy (van 't Hoff): 74.9 kcal/mol
